Columns and labels:
Assay in all cases: cell-based or functional assay
[1] = target: HLA-DQ2.5 on IHW09023 cells loaded with 33 mer gliadin peptide (human; wheat)
[2] = target: HLA-DQ2.5 on IHW09023 cells loaded with omega1/2 gliadin peptide (human; wheat)
[3] = target: HLA-DQ2.5 on IHW09023 cells loaded with BC hordein peptide (human; barley)
[4] = target: HLA-DQ2.5 on IHW09023 cells loaded with gamma 1 gliadin peptide (human; wheat)
[5] = target: HLA-DQ2.5 on IHW09023 cells loaded with gamma 2 gliadin peptide (human; wheat)
[6] = target: HLA-DQ2.5 on IHW09023 cells loaded with gamma 3 gliadin peptide (human; wheat)
[7] = target: HLA-DQ2.5 on IHW09023 cells loaded with gamma 4a gliadin peptide (human; wheat)
[8] = target: HLA-DQ2.5 on IHW09023 cells loaded with gamma 4d gliadin peptide (human; wheat)

Binder	IC50, α1b gliadin TCR, 250 nM 33mer gliadin [1] [ng/mL]	IC50, α2 gliadin TCR, 250 nM 33mer gliadin [1] [ng/mL]	IC50, ω1 gliadin TCR, 25 µM ω1/2 gliadin [2] [ng/mL]	IC50, ω2 gliadin TCR, 250 nM ω1/2 gliadin [2] [ng/mL]	IC50, BC hordein TCR, 250 nM BC hordein [3] [ng/mL]	IC50, γ1 gliadin TCR, 250 nM γ1 gliadin [4] [ng/mL]	IC50, γ2 gliadin TCR, 250 nM γ2 gliadin [5] [ng/mL]	IC50, γ3 gliadin TCR, 100 µM γ3 gliadin [6] [ng/mL]	IC50, γ4a gliadin TCR, 25 µM γ4a gliadin [7] [ng/mL]	IC50, γ4d gliadin TCR, 100 µM γ4d gliadin [8] [ng/mL]	IC50, α1a gliadin TCR, 250 nM 33mer gliadin [1] [ng/mL]
DQN0344H0976/L0591//DQN0385H1270/L0681-F6 (bispecific antibody) heavy 1: QVQLVESGGGVVQPGGSLRLSCAASGFTFSSAYWMVWVRQAPGQGLEWMGAVYGGSDTTYYAKWTEGRFTISRDTSKNTLYLQMNSLRAEDTAVYYCAREPLNYYYYGELNLWGQGTLVTVSSASTKGPSVFPLAPSSKSTSGGTAALGCLVKDYFPEPVTVSWNSGALTSGVHTFPAVLKSSGLYSLSSVVTVPSSSLGTQTYICNVNHKPSNTKVDKRVEPKSCDKTHTCPPCPAPELRRGPSVFLFPPKPKDTLMISRTPEVTCVVVDVSHEDPEVKFNWYVDGVEVHNAKTKPREEQYNSTYRVVSVLTVLHQDWLNGKEYKCKVSNKALPAPIEKTISKAKGQPREPQVYTLPPSREEMTKNQVSLTCLVKGFYPSDIAVEWESNGQPENNYKTTPPYLDSDGSFFLYSKLTVDKSRWQEGNVFSCSVLHEALHAHYTREELSLSP light 1: DIQMTQSPSSLSASVGDRVTITCQATEEIYSGLAWYQQKPGKAPKLLIYYVSTLYEGIPARFSGSGSGTDFTLTISSLEPEDFAVYYCQTYEDVSAVTFGQGTKVEIKRTVAAPSVFIFPPSDEQLKSGTAEVVCLLNNFYPREAKVQWKVDNALQSGNSEESVTEQDSKDSTYSLSSTLTLSKADYEKHKVYACEVTHQGLSSPVTKSFNRGEC heavy 2: QVQLVESGGGVVQPGRSLRLSCAASGFTFSEWYFMSWVRQAPGKGLEWVASIDTGSGSIDYAEWVEGRFTISRDNSKNTLYLQMNSLRAEDTAVYYCARDIGIDYNFWGPGTLVTVSSASTKGPSVFPLAPSSKSTSGGTAALGCLVEDYFPEPVTVSWNSGALTSGVHTFPAVLESSGLYSLSSVVTVPSSSLGTKTYICNVNHKPSNTKVDKRVEPKSCDKTHTCPPCPAPELRRGPSVFLFPPKPKDTLMISRTPEVTCVVVDVSHEDPEVKFNWYVDGVEVHNAKTKPREEQYNSTYRVVSVLTVLHQDWLNGKEYKCKVSNKALPAPIEKTISKAKGQPREPQVYTLPPSRKEMTKNQVSLTCLVKGFYPSDIAVEWESNGQPENNYKTTPPYLDSDGSFFLYSKLTVDKSRWQQGNVFSCSVLHEALHAHYTRKELSLSP light 2: DIQMTQSPSSLSASVGDRVTITCQTTQSISSYLNWYQQKPGQPPKLLIYYASTKAEGIPARFSGSGLGTDFTLTISSLEPEDFAVYYCHYGISKVSFGQGTKVEIKRTVAAPSVFIFPPSDEQLKSGTAKVVCLLNNFYPREAKVQWKVDNALQSGNSKESVTEQDSKDSTYSLSSTLTLSKADYEKHKVYACEVTHQGLSSPVTKSFNRGEC	1.36	0.34	2.07	0.26	12	1.05	182	2.4	749	11.8	
DQN0344H0976/L0591//DQN0385H1270/L0722-F6 (bispecific antibody) heavy 1: QVQLVESGGGVVQPGGSLRLSCAASGFTFSSAYWMVWVRQAPGQGLEWMGAVYGGSDTTYYAKWTEGRFTISRDTSKNTLYLQMNSLRAEDTAVYYCAREPLNYYYYGELNLWGQGTLVTVSSASTKGPSVFPLAPSSKSTSGGTAALGCLVKDYFPEPVTVSWNSGALTSGVHTFPAVLKSSGLYSLSSVVTVPSSSLGTQTYICNVNHKPSNTKVDKRVEPKSCDKTHTCPPCPAPELRRGPSVFLFPPKPKDTLMISRTPEVTCVVVDVSHEDPEVKFNWYVDGVEVHNAKTKPREEQYNSTYRVVSVLTVLHQDWLNGKEYKCKVSNKALPAPIEKTISKAKGQPREPQVYTLPPSREEMTKNQVSLTCLVKGFYPSDIAVEWESNGQPENNYKTTPPYLDSDGSFFLYSKLTVDKSRWQEGNVFSCSVLHEALHAHYTREELSLSP light 1: DIQMTQSPSSLSASVGDRVTITCQATEEIYSGLAWYQQKPGKAPKLLIYYVSTLYEGIPARFSGSGSGTDFTLTISSLEPEDFAVYYCQTYEDVSAVTFGQGTKVEIKRTVAAPSVFIFPPSDEQLKSGTAEVVCLLNNFYPREAKVQWKVDNALQSGNSEESVTEQDSKDSTYSLSSTLTLSKADYEKHKVYACEVTHQGLSSPVTKSFNRGEC heavy 2: QVQLVESGGGVVQPGRSLRLSCAASGFTFSEWYFMSWVRQAPGKGLEWVASIDTGSGSIDYAEWVEGRFTISRDNSKNTLYLQMNSLRAEDTAVYYCARDIGIDYNFWGPGTLVTVSSASTKGPSVFPLAPSSKSTSGGTAALGCLVEDYFPEPVTVSWNSGALTSGVHTFPAVLESSGLYSLSSVVTVPSSSLGTKTYICNVNHKPSNTKVDKRVEPKSCDKTHTCPPCPAPELRRGPSVFLFPPKPKDTLMISRTPEVTCVVVDVSHEDPEVKFNWYVDGVEVHNAKTKPREEQYNSTYRVVSVLTVLHQDWLNGKEYKCKVSNKALPAPIEKTISKAKGQPREPQVYTLPPSRKEMTKNQVSLTCLVKGFYPSDIAVEWESNGQPENNYKTTPPYLDSDGSFFLYSKLTVDKSRWQQGNVFSCSVLHEALHAHYTRKELSLSP light 2: DIQMTQSPSSLSASVGDRVTITCQTTQSISSYLNWYQQKPGQPPKLLIYYASTKAEGIPARFSGSGLGTDFTLTISSLQPEDFAVYYCHYGISKVSFGQGTKVEIKRTVAAPSVFIFPPSDEQLKSGTAKVVCLLNNFYPREAKVQWKVDNALQSGNSKESVTEQDSKDSTYSLSSTLTLSKADYEKHKVYACEVTHQGLSSPVTKSFNRGEC	1.41	0.31	2.55	0.26	13.2	0.66	281	2.88	726	16.3	0.38
DQN0344H0976/L0591//DQN0385H1255/L0605-F6 (bispecific antibody) heavy 1: QVQLVESGGGVVQPGGSLRLSCAASGFTFSSAYWMVWVRQAPGQGLEWMGAVYGGSDTTYYAKWTEGRFTISRDTSKNTLYLQMNSLRAEDTAVYYCAREPLNYYYYGELNLWGQGTLVTVSSASTKGPSVFPLAPSSKSTSGGTAALGCLVKDYFPEPVTVSWNSGALTSGVHTFPAVLKSSGLYSLSSVVTVPSSSLGTQTYICNVNHKPSNTKVDKRVEPKSCDKTHTCPPCPAPELRRGPSVFLFPPKPKDTLMISRTPEVTCVVVDVSHEDPEVKFNWYVDGVEVHNAKTKPREEQYNSTYRVVSVLTVLHQDWLNGKEYKCKVSNKALPAPIEKTISKAKGQPREPQVYTLPPSREEMTKNQVSLTCLVKGFYPSDIAVEWESNGQPENNYKTTPPYLDSDGSFFLYSKLTVDKSRWQEGNVFSCSVLHEALHAHYTREELSLSP light 1: DIQMTQSPSSLSASVGDRVTITCQATEEIYSGLAWYQQKPGKAPKLLIYYVSTLYEGIPARFSGSGSGTDFTLTISSLEPEDFAVYYCQTYEDVSAVTFGQGTKVEIKRTVAAPSVFIFPPSDEQLKSGTAEVVCLLNNFYPREAKVQWKVDNALQSGNSEESVTEQDSKDSTYSLSSTLTLSKADYEKHKVYACEVTHQGLSSPVTKSFNRGEC heavy 2: QVQLVESGGGVVQPGRSLRLSCAASGFTFSEWYFMSWVRQAPGKGLEWVASIDTGSGSIDYAGWVEERFTISRDNSKNTLYLQMNSLRAEDTAVYYCARDIGIDYNFWGPGTLVTVSSASTKGPSVFPLAPSSKSTSGGTAALGCLVEDYFPEPVTVSWNSGALTSGVHTFPAVLESSGLYSLSSVVTVPSSSLGTKTYICNVNHKPSNTKVDKRVEPKSCDKTHTCPPCPAPELRRGPSVFLFPPKPKDTLMISRTPEVTCVVVDVSHEDPEVKFNWYVDGVEVHNAKTKPREEQYNSTYRVVSVLTVLHQDWLNGKEYKCKVSNKALPAPIEKTISKAKGQPREPQVYTLPPSRKEMTKNQVSLTCLVKGFYPSDIAVEWESNGQPENNYKTTPPYLDSDGSFFLYSKLTVDKSRWQQGNVFSCSVLHEALHAHYTRKELSLSP light 2: DIQMTQSPSSLSASVGDRVTITCQTTQSISSYLNWYQQKPGQPPKLLIYYASTKAEGIPARFSGSGSGTDFTLTISSLEPEDFAVYYCHYGISKVSFGQGTKVEIKRTVAAPSVFIFPPSDEQLKSGTAKVVCLLNNFYPREAKVQWKVDNALQSGNSKESVTEQDSKDSTYSLSSTLTLSKADYEKHKVYACEVTHQGLSSPVTKSFNRGEC	2.66	0.56	2.62	0.25	13.6	0.91	440	2.31	1430	12.4	0.49

From patent US20220089743A1 (Chugai, published 2022)
